Drawing on doi:10.1101/710897, this text covers stoichiometry N for one substance.

In the assay the target is UapA K73A/R133A/R421A/T401P, purified, detergent-solubilized (Aspergillus nidulans) (UniProt Q07307). In words: native MS.

For orientation: stoichiometry N means the number of molecules, sites or subunits per partner or assembly. “UapA K73A/R133A/R421A/T401P, purified, detergent-solubilized (from UniProt Q07307 1-574) (natural protein)” gave a stoichiometry N of 2.
